Experimental data as given in doi:10.1101/2022.06.15.496229 (bioRxiv, 2022).

B2: DHR2 domain of human DOCK10 (DOCK10^DHR2, residues 1695-2151) (domain or fragment)
chain: TPELRRTWLESMAKIHARNGDLSEAAMCYIHIAALIAEYLKRKGYWKVEKICTASLLSEDTHPCDSNSLLTTPSGGSMFSMGWPAFLSITPNIKEEGAMKEDSGMQDTPYNENILVEQLYMCVEFLWKSERYELIADVNKPIIAVFEKQRDFKKLSDLYYDIHRSYLKVAEVVNSEKRLFGRYYRVAFYGQGFFEEEEGKEYIYKEPKLTGLSEISQRLLKLYADKFGADNVKIIQDSNKVNPKDLDPKYAYIQVTYVTPFFEEKEIEDRKTDFEMHHNINRFVFETPFTLSGKKHGGVAEQCKRRTILTTSHLFPYVKKRIQVISQSSTELNPIEVAIDEMSKKVSELNQLCTMEEVDMIRLQLKLQGSVSVKVNAGPMAYARAFLEETNAKKYPDNQVKLLKEIFRQFADACGQALDVNERLIKEDQLEYQEELRSHYKDMLSELSTVMNEQITG

Experiments:
[1] = target: B2; assay: crystal structure
[2] = target: B2; assay: ITC
crystal structure = target: the molecule itself; assay: crystal structure

B1: CDC42 (residues 1-191) (natural protein)
chain: not shown
[1]
  stoichiometry N: 1 DOCK10^DHR2 per CDC42
[2]
  dH: 2.034 ± 0.0143 kcal/mol

## B2
Crystal structure
  binding result: binds
